Measurements published in paper PMC3594298.

Target: 6Xhis-tagged AldE (class 3 aldehyde dehydrogenase encoded by synpcc7942_0489) from S. elongatus PCC7942 (S. elongatus PCC7942)
Test: SEC; HiLoad 16/60 SuperDex200 gel filtration column in 150 mM NaCl/50 mM Tris, 7.5/1 mM EDTA; elution compared with MW standards

6Xhis-tagged AldE (class 3 aldehyde dehydrogenase encoded by synpcc7942_0489) from S. elongatus PCC7942 (enzyme)
stoichiometry N: 2
